The record followed here is patent publication US20060102935A1, “Transistor-based biosensors having gate electrodes coated with receptor molecules” (priority 2002, published 2006).

As usually defined, the Km is the concentration of substrate that gives half-maximal velocity. What is called Vmax is the rate approached at saturating substrate.

Data set [1] concerns the target T1, acetylcholine esterase (AChE) (Electrophorus electricus, UniProt O42275).
T1 construct: purchased Sigma C1682
The data set can be described thus: AChE-ISFET (AChE-FET) response to substrate and inhibitor in PBS. In kind it is biochemical, electric eel. The following applies: dissolved in PBS, in comparison to ACh.
Procedure: In this experiment, the ISFET has undergone covalent bonding with acetylcholine-esterase using the aforementioned cyanuryl chloride techniques. As shown in the figure, the response of the ACHE-ISFET to various doses of acetylcholine (graph I). Acetylcholine was manually applied into a solution of 5 ml Phosphate Saline Buffer (PBS) in which the ISFET resided.
Both carbamylcholine and acetylcholine have been dissolved in phosphate buffered saline (PBS).
Acetylcholine esterase (C1682, taken from electric eel), acetylcholine-iodine, acetylcholine-chloride, cyanuric chloride and eserine (physostigmine), ere purchased from Sigma and were used as supplied.
ISFETs were first rinsed with isopropanol and dried under Argon. A is solution of 0.1M cyanuric chloride (in dichloromethane) was prepared and then applied to the Al2O3 gate surface of the ISFET. ISFETs were then dried with Argon and heated at 70° C. for 15 minutes, then rinsed again with dichloromethane and dried under Argon. […]
The resulting hybrid system of Example 3, was immersed in a PBS solution as a background electrolyte for the measurements. […] The current between source and drain electrodes (Ids) was measured, while potential between drain and source electrodes (Vds), and between the gate and source electrodes (Vgs) were kept constant at 0.1V and 0.45V, respectively, recording the electrical activity occurring at the gate surface.

Data set [2] relates to CC(=O)OCC[N+](C)(C)C. The data set can be described thus: purified protein, by the assay type. The conditions noted are these: other: surface-bound AChE, Lineweaver-Burk plot, DTNB 5×10^−5 M.
Procedure: In this test, the enzyme activity is measured by following the increase of yellow color produced from the reaction of thiocholine with the DTNB ion (Sawada, O., Ishida, T., Kihachiro, H., J. Biochem., 129, 2001, 899-907).
The reaction of acetylthiocholine-iodide with DTNB (5,5′-dithio-bis (2-nitrobenzoic acid) marker was conducted by immersing the solid substrate containing the immobilized ACHE, obtained above, in an optical cell compatible with the spectrophotometer. The rate of color production was measure at 410 nm. All of the investigated solutions were freshly prepared: ACh in phosphate buffer of pH=8.0 and the DTNB dissolved in PBS buffer of pH=6.5.
The enzyme activity was probed by two methods: Ex-situ and In-situ experiments. In the Ex-situ experiments the solution of the marker containing ACh is measured before and after the exposure to the immobilized ACHE substrate. The optical cell contains a solution composed of 2 ml of 2.5.10^−3 M ACh and 2 ml of 1.10^−4 M DTNB. The optical spectra were recorded before and after 15 min of the immobilized enzyme solution insertion to this optical cell. In the In-situ experiments, the substrate is immersed in the optical cell containing various concentrations of the DTNB/ACh solution. The hydrolysis product was followed in two ways: (a) by recording the spectra in fixed time interval and (b) by the time course mode at 410 nm. […]

T1 sequence (O42275 24-633): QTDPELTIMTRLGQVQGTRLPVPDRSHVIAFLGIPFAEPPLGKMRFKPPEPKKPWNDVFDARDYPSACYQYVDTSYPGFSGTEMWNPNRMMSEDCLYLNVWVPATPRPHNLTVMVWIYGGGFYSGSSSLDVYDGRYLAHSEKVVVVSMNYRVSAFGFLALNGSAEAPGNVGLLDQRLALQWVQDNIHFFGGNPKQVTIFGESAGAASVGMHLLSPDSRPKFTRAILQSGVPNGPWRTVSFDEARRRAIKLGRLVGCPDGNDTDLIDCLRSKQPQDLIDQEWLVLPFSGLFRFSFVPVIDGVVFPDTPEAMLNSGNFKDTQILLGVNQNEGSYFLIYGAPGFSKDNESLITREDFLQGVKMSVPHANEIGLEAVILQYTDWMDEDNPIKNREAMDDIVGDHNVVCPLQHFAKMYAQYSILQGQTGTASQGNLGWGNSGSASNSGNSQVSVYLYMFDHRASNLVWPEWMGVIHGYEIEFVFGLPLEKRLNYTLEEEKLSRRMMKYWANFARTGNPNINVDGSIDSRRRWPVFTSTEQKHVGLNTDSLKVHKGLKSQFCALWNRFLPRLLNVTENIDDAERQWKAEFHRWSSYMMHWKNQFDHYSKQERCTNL

`C[N+](C)(C)CCOC(N)=O.[Cl-]` [Carbamylcholine]: the “response of AChE-ISFET on application to the solution” value in data set [1] is on record as “no response”.
As to “surface-bound AChE (Electrophorus electricus)”, in data set [2], the Km turned out to be 310 µM and the maximum rate (Vmax) is 1e-07 M/s.
